In test [1] the target is VEGF-A165 (UniProt P15692). Description: blocking ELISA, VEGF-A165 to VEGFR1 (Example 13). Background: In an ELISA, binding on a coated surface is turned into a signal by an enzyme label.
Test [2] deals with VEGF-A165 (UniProt P15692). Description: blocking ELISA, VEGF-A165 to VEGFR2 (Example 13).
Test [3] deals with VEGF-A165 (UniProt P15692). The test can be described thus: blocking ELISA, VEGF A165 to VEGFR1 (Example 16).
The target of test [4] is VEGF-A165 (UniProt P15692). The test can be described thus: blocking ELISA, VEGF A165 to VEGFR2 (Example 16).
The target of test [5] is VEGF-A165 (UniProt P15692). The test can be described thus: blocking ELISA, VEGF-A 165-His to coated VEGFR2-Fc.
Test [6] has as its target T1, PIGF (UniProt P49763).
T1 sequence (looked up): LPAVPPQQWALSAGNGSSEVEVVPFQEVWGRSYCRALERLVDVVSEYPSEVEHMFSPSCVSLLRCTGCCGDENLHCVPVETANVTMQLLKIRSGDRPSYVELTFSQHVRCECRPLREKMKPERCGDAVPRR
Description: ELISA, PlGF coated, anti-human Fc-HRP, OD450.

In test [7] the target is T1, PIGF. Description: ELISA, PlGF coated, anti-human Fc-HRP, OD450. The source holds these as a separate data set.
Test [8] has as its target T1, PIGF. The test can be described thus: ELISA, PlGF coated, anti-human Fc-HRP, OD450. The source holds these as a separate data set.
The target in test [9] is VEGF-A165 (UniProt P15692). The test can be described thus: ELISA binding to VEGF-A165, absorbance 450 nm.
In test [10] the target is T2, VEGF-B (UniProt P49765).
T2 sequence (looked up): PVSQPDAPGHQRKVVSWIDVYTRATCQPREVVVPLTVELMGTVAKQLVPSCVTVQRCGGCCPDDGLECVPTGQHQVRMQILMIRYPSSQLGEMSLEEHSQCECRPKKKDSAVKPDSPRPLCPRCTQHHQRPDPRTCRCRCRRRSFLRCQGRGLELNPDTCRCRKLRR
Description: ELISA, VEGF-B coated, anti-human Fc-HRP, OD450.

Test [11] deals with T2, VEGF-B. The test can be described thus: ELISA, VEGF-B coated, anti-human Fc-HRP, OD450. The source holds these as a separate data set.
For test [12], the target named is T2, VEGF-B. The test can be described thus: ELISA, VEGF-B coated, anti-human Fc-HRP, OD450. The source holds these as a separate data set.
The target of test [13] is VEGF-A165 (UniProt P15692). Description: blocking ELISA, VEGF-A 165-His to coated VEGFR2-Fc; row head prints uM, paragraph 129 and ng/ml row give nM.
For test [14], the target named is VEGF-A165 (UniProt P15692). The test can be described thus: blocking ELISA: His-VEGF-A165 premixed with sample, binding to coated VEGFR2-Fc read with anti-His-HRP.

Where two headings read alike, the source gives them in different places.

Sequence of VEGF-A165 (P15692 other isoform, or with tags, fused parts or gaps limits assumed): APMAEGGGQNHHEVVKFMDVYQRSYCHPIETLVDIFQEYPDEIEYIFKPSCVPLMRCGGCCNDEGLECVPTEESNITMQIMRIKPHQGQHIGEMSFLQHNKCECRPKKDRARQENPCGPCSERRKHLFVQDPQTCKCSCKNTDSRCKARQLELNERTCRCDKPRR
Sequence of Eylea (Fc fusion) (chain): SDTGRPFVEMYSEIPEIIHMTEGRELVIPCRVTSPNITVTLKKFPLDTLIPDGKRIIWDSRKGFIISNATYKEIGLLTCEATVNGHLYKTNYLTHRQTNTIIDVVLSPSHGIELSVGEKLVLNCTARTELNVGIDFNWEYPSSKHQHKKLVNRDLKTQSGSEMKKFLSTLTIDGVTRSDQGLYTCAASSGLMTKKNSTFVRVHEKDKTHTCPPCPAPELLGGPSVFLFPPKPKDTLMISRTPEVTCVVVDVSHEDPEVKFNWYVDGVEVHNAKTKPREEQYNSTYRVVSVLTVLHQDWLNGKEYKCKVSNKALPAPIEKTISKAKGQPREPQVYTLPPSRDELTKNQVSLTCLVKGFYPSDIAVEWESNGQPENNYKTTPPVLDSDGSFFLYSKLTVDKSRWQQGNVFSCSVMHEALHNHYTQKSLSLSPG

For Eylea (Fc fusion), the EC50 came out at 4.64 nM with VEGF-A165 [1]; 2.23 nM with VEGF-A165 [2]; 6.96 nM with VEGF-A165 [3]; 3.94 nM with VEGF-A165 [4]; 0.32 µg/mL with VEGF-A165 [5]; 0.17 nM with PIGF [6]. For the same substance, the EC50 with PIGF [7] amounted to 0.1 nM; in the test with PIGF [8], 0.223 nM; with VEGF-A165 [9] it was 0.138 nM; with VEGF-B [10], 0.64 nM; with VEGF-B [11], 0.94 nM; with VEGF-B [12], 1.07 nM. The half-maximal effective concentration (EC50) with VEGF-A165 [13] worked out at 3200 nM; with VEGF-A165 [14] it was 1.7 nM.

For orientation: EC50 means the concentration needed to bring the measured effect to its halfway point. A higher EC50 goes with weaker potency.

(Values after patent US20250002557A1.)
